Holding throughout (assay): SPR; Biacore X100, CM5 chip, RT, 1:1 binding model; methods: antibody (4 μg/mL) captured by anti-human Fc IgG to about 100 RU, pentamer or trimer in five 2-fold dilutions injected at 30 μL/min, 90 s association, 600 s dissociation (the legend of Fig. 5 tells the reverse orientation)
(Surface plasmon resonance follows binding to a sensor surface in real time, without labels.)

For assay [1], the target named is pentamer mutant UL131A_K27A (human cytomegalovirus | human cytomegalovirus strain VR1814).
For assay [2], the target named is pentamer mutant UL131A_E23A (human cytomegalovirus | human cytomegalovirus strain VR1814).
The target in assay [3] is pentamer mutant UL128_T94A (human cytomegalovirus | human cytomegalovirus strain VR1814).
Assay [4] addresses pentamer mutant UL128_K47A (human cytomegalovirus | human cytomegalovirus strain VR1814).

B1: MAb 9I6 (antibody, V domains shown)
VH: EVQLVQSGAEVKKPGESLKISCRESGDTFPAYWIAWVRQMPGKGLEWMGIIYPIDSETTYSPSFQGQVTISADKSINTAYLQWSSLKASDSAIYYCARGTSTGLREAFHIWGQGTMVTVSS
VL: DVVMTQSPLSLAVTLGQPAYISCRSSQSLGYSDGNTYLNWFQQRPGQSPRRLIYEVSNRDSGVPDRFSGSGSGTDFTLKISRVEAEDVGTYYCMQGTHWPPMCSFGQGTKLEIK
In general, Kd refers to the constant that tells how readily two partners part at equilibrium. Higher therefore signals lower affinity. A word on the koff: it is the first-order rate constant of dissociation. Higher therefore signals a short-lived complex. For orientation: kon means the rate constant with which the complex forms. Low values mean slower complex formation, high ones faster complex formation. On to B1, for which the Kd worked out at 1.91 nM in assay [1], 2.83 nM in assay [2], 0.57 nM in assay [3] and 1.5 nM in assay [4]. Further, the koff is 0.000181 s⁻¹ in assay [1], 0.000115 s⁻¹ in assay [2], 3e-05 s⁻¹ in assay [3] and 7.38e-05 s⁻¹ in assay [4]. Further, the kon came to 94700 M⁻¹ s⁻¹ in assay [1], 40700 M⁻¹ s⁻¹ in assay [2], 53100 M⁻¹ s⁻¹ in assay [3] and 49200 M⁻¹ s⁻¹ in assay [4].

The values are drawn from paper PMC9784774.
